Experimental findings from patent EP2966085A1 are described below.

For this assay, the target named is CD20 (human) (UniProt P11836). Briefly: cell-based or functional assay.
Chain of UniProt P11836 (P11836 whole entry): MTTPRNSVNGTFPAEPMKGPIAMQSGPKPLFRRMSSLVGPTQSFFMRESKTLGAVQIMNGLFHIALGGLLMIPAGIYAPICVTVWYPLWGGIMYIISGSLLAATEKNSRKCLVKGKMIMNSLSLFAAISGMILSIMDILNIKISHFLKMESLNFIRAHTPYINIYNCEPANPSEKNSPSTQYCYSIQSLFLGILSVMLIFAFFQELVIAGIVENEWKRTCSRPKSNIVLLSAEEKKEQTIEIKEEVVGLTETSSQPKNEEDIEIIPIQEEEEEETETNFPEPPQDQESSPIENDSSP

Substance mAb1 IgG1 mutant G137E-G138S (antibody) registered a Mean normalised apoptosis % (Ramos cells), with cross-linking mAb of 332% and a Mean normalised apoptosis % (Ramos cells), without cross-linking mAb of 78%. As for “mAb1 IgG1 (equivalent to rituximab), unmodified IgG1 control (antibody)”, the Mean normalised apoptosis % (Ramos cells), with cross-linking mAb turned out to be 278%. On to mAb1 IgG1 mutant H224P (antibody), for which the Mean normalised apoptosis % (Ramos cells), with cross-linking mAb was 322% and the Mean normalised apoptosis % (Ramos cells), without cross-linking mAb turned out to be 106%. On to mAb1 IgG1 mutant C220G (antibody), for which the Mean normalised apoptosis % (Ramos cells), with cross-linking mAb is 359% and the Mean normalised apoptosis % (Ramos cells), without cross-linking mAb was 106%.
